Experiments:
NALM6 (CD19+) = assay: Killing assay with luciferized target cells (remaining luciferase activity); details: presence or absence of bazedoxifene; 20 hours; versus parental CAR19
CD19+ NALM6 cells = assay: Proliferation assay in co-culture with target cells (FACS, counting beads); details: presence or absence of bazedoxifene; 4 days; versus parental CAR19
[1] = tested on: NALM6, a CD19+ target cell line; assay: Cytokine secretion in co-culture with target cells; details: presence or absence of bazedoxifene; 20 hours; versus parental CAR19
primary human T cells = assay: FurON CAR19 surface expression in primary human T cells (FACS, protein L); assay type: cell-based; details: cells prepared for the in vivo study; IL2 and 1 uM bazedoxifene; day 10
Protocol: Bazedoxifene and raloxifene were resuspended in DMSO. In all instances, where concentrations not indicated, compounds were added at 1 uM for 24 hours prior to analysis by flow cytometry.
. […] Cell number, size, and viability were also assessed.
Untransduced T cells (UTDs) and the parental CAR19 were used as controls. […] .
CART cells were generated by starting with blood from healthy apheresed donors whose naïve T cells were obtained by negative selection for T cells, CD4+ and CD8+ lymphocytes. These cells were activated by the addition of CD3/CD28 beads (Dynabeads® Human T-Expander CD3/CD28, Thermo Fisher Scientific) at a ratio of 1:3 (T cell to bead) in T cell medium (RPMI1640, 10% heat-inactivated fetal calf serum (FCS), 2 mM L-glutamine, lx Penicillin/Streptomycin, 100 μM non-essential amino acids, 1 mM Sodium Pyruvate, 10 mM Hepes, and 55 μM 2-mercaptoethanol) at 37° C., 5% CO2. T cells were cultured at 4×10^6 T cells (UTDs) or 5×10^6 (CART19 and FurON CART19) in 1 mL medium per well of a 24-well plate. […] T cells began to divide in a logarithmic growth pattern, which is monitored by measuring the cell counts per mL, and T cells are diluted in fresh medium every two days. […] On day 10 the cells are collected and the percentage of cells transduced (expressing the CD19-specific CAR on the cell surface) was determined by flow cytometry analysis on a FACS Fortessa (BD). […]

B1: construct #130: furin degron with fewer mutations (ERmut2) fused to anti-CD19 scFV CAR; same furin cleavage sequence as #106 (protein)
chain: RSSLALSLTADQMVSALLDAEPPILYSEYDPTRPFSEASMMGLLTNLADRELVHMINWAKRVPGFVDLTLHDQVHLLECAWMEILMIGLVWRSMEHPGKLLFAPNLLLDRNQGKCVEGGVEIFDMLLATSSRFRMMNLQGEEFVCLKSIILLNSGVYTFLSSTLKSLEEKDHIHRVLDKITDTLIHLMAKAGLTLQQQHQRLAQLLLILSHIRHMSNKRMEHLYSMKCKNVVPLSDLLLEMLDAHRLGTGAEDPRPSRKRRSLGDVGEIVMTQSPATLSLSPGERATLSCRASQDISKYLNWYQQKPGQAPRLLIYHTSRLHSGIPARFSGSGSGTDYTLTISSLQPEDFAVYFCQQGNTLPYTFGQGTKLEIKGGGGSGGGGSGGGGSQVQLQESGPGLVKPSETLSLTCTVSGVSLPDYGVSWIRQPPGKGLEWIGVIWGSETTYYSSSLKSRVTISKDNSKNQVSLKLSSVTAADTAVYYCAKHYYYGGSYAMDYWGQGTLVTVSSTTTPAPRPPTPAPTIASQPLSLRPEACRPAAGGAVHTRGLDFACDIYIWAPLAGTCGVLLLSLVITLYCKRGRKKLLYIFKQPFMRPVQTTQEEDGCSCRFPEEEEGGCELRVKFSRSADAPAYKQGQNQLYNELNLGRREEYDVLDKRRGRDPEMGGKPRRKNPQEGLYNELQKDKMAEAYSEIGMKGERRRGKGHDGLYQGLSTATKDTYDALHMQALPPR
NALM6 (CD19+)
  Percent tumor lysis: kill CD19+ tumor cells, in a stabilizing compound- and target-dependent manner and is noninferior to the parental CAR construct
CD19+ NALM6 cells
  Proliferation: proliferate in the presence of CD19+ tumor cells, in a manner that is stabilizing compound-dependent and is noninferior to the parental CAR construct
[1]
  levels of IFNγ: secrete cytokines in the presence of CD19+ tumor cells, in a manner that is stabilizing compound-dependent and is noninferior to the parental CAR construct
Primary human T cells
  surface expression (mean fluorescence intensity, MFI): lower than the observed for CART19

Reference: patent US20230071283A1, “COMPOSITIONS AND METHODS FOR SELECTIVE PROTEIN EXPRESSION” (Novartis AG, priority 2017, published 2023)
